Results from patent US20240182549A1 (published 2024).

Tests used:
[1] = molecular target: T1, SARS-CoV-2 S protein ectodomain trimer (residues 1-1211, foldon trimerization motif, 6xHis tag, AviT (SARS-CoV-2; bacteriophage T4, UniProt P0DTC2 14-1211; P10104 458-484)
[2] = molecular target: T1, SARS-CoV-2 S protein ectodomain trimer …; test: BLI on immobilized S protein ECD
[3] = molecular target: T1, SARS-CoV-2 S protein ectodomain trimer …; test: ELISA on biotinylated S protein trimer captured with immobilized streptavidin
[4] = molecular target: T1, SARS-CoV-2 S protein ectodomain trimer …; test: BLI on immobilized S protein

B1: peptide-IgG 33^HN1 (peptide p16 fused to the N-terminus of the heavy chain of IgG 15033) (antibody)
heavy: not shown
light: DIQMTQSPSSLSASVGDRVTITCRASQSVSSAVAWYQQKPGKAPKLLIYSASDLYSGVPSRFSGSRSGTDFTLTISSLQPEDFATYYCQQSYRYPITFGQGTKVEIKRTVAAPSVFIFPPSDEQLKSGTASVVCLLNNFYPREAKVQWKVDNALQSGNSQESVTEQDSKDSTYSLSSTLTLSKADYEKHKVYACEVTHQGLSSPVTKSFNRGEC
- Kd [1]: 24 pM
- koff [1]: 3.8e-05 s⁻¹
- kon [1]: 1.6e+06 M⁻¹ s⁻¹

B2: peptide-IgG 33^HR1 (peptide p102 fused to the N-terminus of the heavy chain of IgG 15033) (antibody)
heavy: not shown
light: DIQMTQSPSSLSASVGDRVTITCRASQSVSSAVAWYQQKPGKAPKLLIYSASDLYSGVPSRFSGSRSGTDFTLTISSLQPEDFATYYCQQSYRYPITFGQGTKVEIKRTVAAPSVFIFPPSDEQLKSGTASVVCLLNNFYPREAKVQWKVDNALQSGNSQESVTEQDSKDSTYSLSSTLTLSKADYEKHKVYACEVTHQGLSSPVTKSFNRGEC
- fold improvement of apparent KD relative to IgG 15033 [2]: > 100 fold
- Kd [1]: < 1 pM
- koff [1]: < 1e-07 s⁻¹
- kon [1]: 1.2e+06 M⁻¹ s⁻¹

B3: peptide-IgG 33^LN1 (peptide p16 fused to the N-terminus of the light chain of IgG 15033) (antibody)
heavy: not shown
light: DFDFAENWMEQLKVMLGGGGSGGGGSGGGGSGGGGSDIQMTQSPSSLSASVGDRVTITCRASQSVSSAVAWYQQKPGKAPKLLIYSASDLYSGVPSRFSGSRSGTDFTLTISSLQPEDFATYYCQQSYRYPITFGQGTKVEIKRTVAAPSVFIFPPSDEQLKSGTASVVCLLNNFYPREAKVQWKVDNALQSGNSQESVTEQDSKDSTYSLSSTLTLSKADYEKHKVYACEVTHQGLSSPVTKSFNRGEC
- fold improvement of apparent KD relative to IgG 15033 [2]: > 100 fold
- Kd [1]: < 1 pM
- koff [1]: < 1e-07 s⁻¹
- kon [1]: 1.1e+06 M⁻¹ s⁻¹

B4: IgG 15031 (antibody, V domains shown)
VH: EVQLVESGGGLVQPGGSLRLSCAASGFDLTGSYMHWVRQAPGKGLEWVAGISASGGATAYADSVKGRFTISADTSKNTAYLQMNSLRAEDTAVYYCARSRSSSYSSSGWRYYSGAFDYWGQGTLVTVSS
VL: DIQMTQSPSSLSASVGDRVTITCRASQSVSSAVAWYQQKPGKAPKLLIYSASDLYSGVPSRFSGSRSGTDFTLTISSLQPEDFATYYCQQGSYLFTFGQGTKVEIKR
- binding result [3]: binds

B5: peptide-IgG 33^LR1 (peptide p102 fused to the N-terminus of the light chain of IgG 15033) (antibody)
heavy: not shown
light: ECWEWSYQLQEWSPCPGGGGSGGGGSGGGGSGGGGSDIQMTQSPSSLSASVGDRVTITCRASQSVSSAVAWYQQKPGKAPKLLIYSASDLYSGVPSRFSGSRSGTDFTLTISSLQPEDFATYYCQQSYRYPITFGQGTKVEIKRTVAAPSVFIFPPSDEQLKSGTASVVCLLNNFYPREAKVQWKVDNALQSGNSQESVTEQDSKDSTYSLSSTLTLSKADYEKHKVYACEVTHQGLSSPVTKSFNRGEC
- Kd [1]: 6.1 pM
- koff [1]: 2.2e-06 s⁻¹
- kon [1]: 350000 M⁻¹ s⁻¹

B6: 15031 Fab-IgG (tetravalent) (antibody)
heavy: not shown
light: DIQMTQSPSSLSASVGDRVTITCRASQSVSSAVAWYQQKPGKAPKLLIYSASDLYSGVPSRFSGSRSGTDFTLTISSLQPEDFATYYCQQGSYLFTFGQGTKVEIKRTVAAPSVFIFPPSDEQLKSGTASVVCLLNNFYPREAKVQWKVDNALQSGNSQESVTEQDSKDSTYSLSSTLTLSKADYEKHKVYACEVTHQGLSSPVTKSFNRGEC
- binding result [4]: binds

B7: 15031 IgG-Fab (tetravalent) (antibody)
heavy: not shown
light: DIQMTQSPSSLSASVGDRVTITCRASQSVSSAVAWYQQKPGKAPKLLIYSASDLYSGVPSRFSGSRSGTDFTLTISSLQPEDFATYYCQQGSYLFTFGQGTKVEIKRTVAAPSVFIFPPSDEQLKSGTASVVCLLNNFYPREAKVQWKVDNALQSGNSQESVTEQDSKDSTYSLSSTLTLSKADYEKHKVYACEVTHQGLSSPVTKSFNRGEC
- binding result [4]: binds
